Source: US20210340232A1, “MONOCLONAL ANTIBODIES AGAINST HUMAN DICKKOPF3 AND USES THEREOF” (Board of Regents, The University of Texas System, priority 2018, published 2021)

What was measured:
MPSCs = assay: Proliferation of mouse PSCs by MTS assay at 7 days; assay type: cell-based
Method: FIGS. 12A-D. DKK3 expression in mouse PSCs and effects of treatment with DKKC mAb on survival. (FIG. 12A) Western blot analysis of recombinant human and mouse DKK3 under denaturing and non-denaturing conditions using JM6-6-1 mAb. (FIG. 12B) Expression of murine DKK3 in murine PSCs (MPSC) or 3T3 cells was determined by RT-PCR. 18S was used as loading control. (FIG. 12C) Proliferation of MPSCs treated with DKK3 mAb was measured at 7 days by MTS assay. ***p<0.001 vs. PBS. (FIG. 12D) Pdx1-Cre; Kras LSL-G12D;Trp53fl/+ model of PDAC was treated with DKK3 mAb JM6-6-1 or control mAb JM4-74 (5 mg/kg i.p. q5d). Kaplan-Meier survival curves are shown (log rank test). At 0% survival, the right line is JM6-6-1, the middle lines is PBS, and the left line is Control Ab.
Cell-based assays. Cell proliferation was measured by the MTS assay (Promega, Madison, Wis.). Cell migration and invasion studies with stimulation by recombinant human DKK3 (R&D, Minneapolis, Minn.) were performed using 6.5-mm Transwell® with 8.0-μm pore membrane Insert (Corning Incorporated) and BioCoat Matrigel-coated invasion chambers (BD Biosciences, Bedford, Mass.).

[1] = test system: KPC/DKK3-/- model of PDAC; assay: Survival of KPC/DKK3-/- mice (P48-Cre; Kras LSL-G12D;Trp53fl/fl; dkk3-/-); assay type: in vivo, mouse
Method: HPSCs and BxPC3 cells were treated with DKK3 mAb clones JM6-6-1 and JM8-12-1 or isotype control mAb or PBS. (FIGS. 5A-B) HPSC apoptosis and migration as measured by FACS and Transwell migration assay at 48 hours. (FIG. 5C) BxPC3 migration in response to rhDKK3 10 μg/ml as measured by Transwell migration assay at 48 hours. (FIG. 5D) BxPC3 resistance to gemcitabine 100 μM as measured by MTS proliferation assay at 6 days. HPSC-CM, pancreatic stellate cell conditioned media, 10 μg/ml. The orthotopic co-injection BxPC3+ HPSC model of PDAC was used to test the efficacy of DKK3 mAb clones JM6-6-1 or JM8-12-1 (5 mg/kg i.p. once every 5 days). (FIG. 5E) Overall tumor progression was measured every 3-4 days by IVIS imaging. […]
FIGS. 6A-F. DKK3 blockade is associated with increased tumor immune infiltrates and improves response to checkpoint inhibitor therapy. (FIG. 6A) T cells were stimulated, treated with DKK3 (5-10 μg/mL) and proliferation was measured by CFSE assay. In a syngeneic orthotopic model with luciferase-labeled KPC cells, tumors were examined for CD3 and CD8 expression by IHC (FIG. 6B) and additional markers of T cell activity were measured by quantitative PCR (FIG. 6C). Mice in this model were treated with either control IgG, DKK3 mAb JM6-6-1, αCTLA4 or the combination JM6-6-1+αCTLA4 and tumor growth was measured by IVIS imaging to 25 and 190 days (FIG. 6D). […]

B1: JM6-6-1: monoclonal antibody against human DKK3; heavy chain variable SEQ ID NO: 19, light chain variable SEQ ID NO: 20 (antibody, V domains shown)
VH: EVKLVESGGGLVKPGGSLKLSCAASGFTFTIEYMAWIRQTPEKRLEWVASISSGGDDIYYADNVKGRFTISRDNAKNTLYLQMSSLKSEDTAIYYCSRSLSDWGQGTTLTVSSAKTTPPSDYPLA
VL: MTQTPLSLPVSLGDQASISCRSSQSILHSNGHTYLEWYLQKPGQSPKLLIYKVSNRFSGVPDRFSGSGSGTDFTLKISRVEAEDLGVYYCFQGSHVPFTFGSGTKLEIERADAAQ
proliferation of mouse PSCs (MPSCs): inhibited proliferation
effect on survival compared to PBS or control mAb [1]: no effect on survival
median survival [1]: 58 days
